Results as given in patent US12227771B2, “Expression systems and methods of use thereof” (Janssen Pharmaceutica NV, priority 2019, dated 2025).

B1: CHAT: Choline O-acetyltransferase, SEQ ID NO: 3, co-transfected cDNA clone (protein, listed as Homo sapiens)
chain: MAAKTPSSEESGLPKLPVPPLQQTLATYLQCMRHLVSEEQFRKSQAIVQQFGAPGGLGETLQQKLLERQEKTANWVSEYWLNDMYLNNRLALPVNSSPAVIFARQHFPGTDDQLRFAASLISGVLSYKALLDSHSIPTDCAKGQLSGQPLCMKQYYGLFSSYRLPGHTQDTLVAQNSSIMPEPEHVIVACCNQFFVLDVVINFRRLSEGDLFTQLRKIVKMASNEDERLPPIGLLTSDGRSEWAEARTVLVKDSTNRDSLDMIERCICLVCLDAPGGVELSDTHRALQLLHGGGYSKNGANRWYDKSLQFVVGRDGTCGVVCEHSPFDGIVLVQCTEHLLKHMTQSSRKLIRADSVSELPAPRRLRWKCSPEIQGHLASSAEKLQRIVKNLDFIVYKFDNYGKTFIKKQKCSPDAFIQVALQLAFYRLHRRLVPTYESASIRRFQEGRVDNIRSATPEALAFVRAVTDHKAAVPASEKLLLLKDAIRAQTAYTVMAITGMAIDNHLLALRELARAMCKELPEMFMDETYLMSNRFVLSTSQVPTTTEMFCCYGPVVPNGYGACYNPQPETILFCISSFHSCKETSSSKFAKAVEESLIDMRDLCSLLPPTESKPLATKEKATRPSQGHQP
B2: TMEM132A: Transmembrane protein 132A, SEQ ID NO: 5, co-transfected cDNA clone (protein, listed as Homo sapiens)
chain: MCARMAGRTTAAPRGPYGPWLCLLVALALDVVRVDCGQAPLDPVYLPAALELLDAPEHFRVQQVGHYPPANSSLSSRSETFLLLQPWPRAQPLLRASYPPFATQQVVPPRVTEPHQRPVPWDVRAVSVEAAVTPAEPYARVLFHLKGQDWPPGSGSLPCARLHATHPAGTAHQACRFQPSLGACVVELELPSHWFSQASTTRAELAYTLEPAAEGPGGCGSGEENDPGEQALPVGGVELRPADPPQYQEVPLDEAVTLRVPDMPVRPGQLFSATLLLRHNFTASLLTLRIKVKKGLHVTAARPAQPTLWTAKLDRFKGSRHHTTLITCHRAGLTEPDSSPLELSEFLWVDFVVENSTGGGVAVTRPVTWQLEYPGQAPEAEKDKMVWEILVSERDIRALIPLAKAEELVNTAPLTGVPQHVPVRLVTVDGGGALVEVTEHVGCESANTQVLQVSEACDAVFVAGKESRGARGVRVDFWWRRLRASLRLTVWAPLLPLRIELTDTTLEQVRGWRVPGPAEGPAEPAAEASDEAERRARGCHLQYQRAGVRFLAPFAAHPLDGGRRLTHLLGPDWLLDVSHLVAPHARVLDSRVASLEGGRVVVGREPGVTSIEVRSPLSDSILGEQALAVTDDKVSVLELRVQPVMGISLTLSRGTAHPGEVTATCWAQSALPAPKQEVALSLWLSFSDHTVAPAELYDRRDLGLSVSAEEPGAILPAEEQGAQLGVVVSGAGAEGLPLHVALHPPEPCRRGRHRVPLASGTAWLGLPPASTPAPALPSSPAWSPPATEATMGGKRQVAGSVGGNTGVRGKFERAEEEARKEETEAREEEEEEEEEMVPAPQHVTELELGMYALLGVFCVAIFIFLVNGVVFVLRYQRKEPPDSATDPTSPQPHNWVWLGTDQEELSRQLDRQSPGPPKGEGSCPCESGGGGEAPTLAPGPPGGTTSSSSTLARKEAGGRRKRVEFVTFAPAPPAQSPEEPVGAPAVQSILVAGEEDIRWVCEDMGLKDPEELRNYMERIRGSS
B3: TMIE: Transmembrane inner ear expressed protein, SEQ ID NO: 4, co-transfected cDNA clone (protein, listed as Homo sapiens)
chain: MAGWPGAGPLCVLGGAALGVCLAGVAGQLVEPSTAPPKPKPPPLTKETVVFWDMRLWHVVGIFSLFVLSIIITLCCVFNCRVPRTRKEIEARYLQRKAAKMYTDKLETVPPLNELTEVPGEDKKKKKKKKKDSVDTVAIKVEEDEKNEAKKKKGEK
B4: TMEM132C: Transmembrane protein 132C, SEQ ID NO: 6, co-transfected cDNA clone (protein, listed as Homo sapiens)
chain: MRSEGAAPGPAAPLCGALSLLLGALLGKVIEGHGVTDNIQRFSSLPPYLPVSYHILRAETSFFLKEANQDLLRNSSLQARVESFFTYKTRQPPVLNASYGPFSVEKVVPLDLMLTSNFLGPTNKFSFDWKLKAHILRDKVYLSRPKVQVLFHIMGRDWDDHGAGEKLPCLRVFAFRETREVRGSCRLKGDLGLCVAELELLSSWFSAPTVGAGRKKSMDQPEGTPVELYYTVHPGNERGDCAGGDFRKGNAIRPGKDGLEETTSHLQRIGTVGLYRAQDSAQLSELRLDGNVVIWLPSRPVKQGEVVTAYVTISSNSSVDLFILRAKVKKGVNILSAQTREPRQWGVKQEVGSGGKHVTATVACQRLGPSPRNRSSSLFNEVVQMNFEIASFSSLSGTQPITWQVEYPRKGTTDIAVSEIFVSQKDLVGIVPLAMDTEILNTAVLTGKTVAMPIKVVSVEENSAVMDISESVECKSTDEDVIKVSERCDYIFVNGKEIKGKMDAVVNFTYQYLSAPLCVTVWVPRLPLQIEVSDTELSQIKGWRVPIVTNKRPTRESEDEDEEERRGRGCALQYQHATVRVLTQFVSEGAGPWGQPNYLLSPNWQFDITHLVADFMKLEEPHVATLQDSRVLVGREVGMTTIQVLSPLSDSILAEKTITVLDDKVSVTDLAIQLVAGLSVALYPNAENSKAVTAVVTAEEVLRTPKQEAVFSTWLQFSDGSVTPLDIYDTKDFSLAATSQDEAVVSVPQPRSPRWPVVVAEGEGQGPLIRVDMTIAEACQKSKRKSILAVGVGNVRVKFGQNDADSSPGGDYEEDEIKNHASDRRQKGQHHERTGQDGHLYGSSPVEREEGALRRATTTARSLLDNKVVKNSRADGGRLAGEGQLQNIPIDFTNFPAHVDLPKAGSGLEENDLVQTPRGLSDLEIGMYALLGVFCLAILVFLINCATFALKYRHKQVPLEGQASMTHSHDWVWLGNEAELLESMGDAPPPQDEHTTIIDRGPGACEESNHLLLNGGSHKHVQSQIHRSADSGGRQGREQKQDPLHSPTSKRKKVKFTTFTTIPPDDSCPTVNSIVSSNDEDIKWVCQDVAVGAPKELRNYLEKLKDKA

Target: T1, human α9α10 nAChR (Homo sapiens, UniProt Q9GZZ6+Q9UGM1)
T1 construct: expressed in transfected cells; host or cells: HEK293T
T1 sequence (Q9UGM1 23-479): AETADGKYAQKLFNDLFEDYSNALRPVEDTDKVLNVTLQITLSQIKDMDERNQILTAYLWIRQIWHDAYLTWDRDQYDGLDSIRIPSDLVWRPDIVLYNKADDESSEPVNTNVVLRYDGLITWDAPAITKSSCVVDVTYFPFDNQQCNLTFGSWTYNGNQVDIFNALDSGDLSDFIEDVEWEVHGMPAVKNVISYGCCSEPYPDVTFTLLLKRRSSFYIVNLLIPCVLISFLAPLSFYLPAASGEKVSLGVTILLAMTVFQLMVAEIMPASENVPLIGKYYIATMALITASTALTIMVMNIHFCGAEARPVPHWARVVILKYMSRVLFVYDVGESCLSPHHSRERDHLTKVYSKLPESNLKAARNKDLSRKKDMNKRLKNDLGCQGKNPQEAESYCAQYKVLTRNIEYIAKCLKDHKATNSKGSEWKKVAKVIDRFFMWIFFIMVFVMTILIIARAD
T1 sequence (Q9GZZ6 25-450): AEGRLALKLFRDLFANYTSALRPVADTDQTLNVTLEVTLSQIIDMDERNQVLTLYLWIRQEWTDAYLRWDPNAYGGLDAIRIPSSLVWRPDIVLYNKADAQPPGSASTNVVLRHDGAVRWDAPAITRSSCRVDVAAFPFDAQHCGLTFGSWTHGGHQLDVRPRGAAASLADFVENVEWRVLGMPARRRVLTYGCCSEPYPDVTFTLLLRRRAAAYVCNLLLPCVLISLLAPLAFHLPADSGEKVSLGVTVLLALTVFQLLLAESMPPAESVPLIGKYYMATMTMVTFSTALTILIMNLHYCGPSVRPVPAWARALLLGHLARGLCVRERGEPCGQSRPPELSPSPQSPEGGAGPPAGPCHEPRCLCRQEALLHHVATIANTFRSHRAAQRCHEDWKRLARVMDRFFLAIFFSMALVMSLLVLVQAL
Assay: FLIPR calcium assay of HEK293T cells co-transfected with α9α10 nAChR and cDNA clones, response evoked by 200 μM ACh
Assay type: cell-based
Conditions: for FLIPR response evoked by 200 μM ACh: HEK293T transfected with α9α10 nAChR and the named protein; for functional expression of co-transfected α9α10 nAChR in cDNA library screen: HEK293T, 20,000 cDNA clones; for functional expression of co-transfected α9α10 nAChR in cDNA library screen / combined effect of TMIE and CHAT on functional responses from α9α10 nAChR / FLIPR Response (Fold/Baseline): 200 μM ACh; for combined effect of TMIE and CHAT on functional responses from α9α10 nAChR: HEK293T; for FLIPR Response (Fold/Baseline): 180 s
Experimental: Human embryonic kidney 293T (HEK293T) cells were cultured in high glucose DMEM medium supplemented with 10% FBS, sodium pyruvate and penicillin/streptomycin. Prior to transfection, cells were seeded at ˜80-90% confluence in 384-well fluorescence imaging plate reader (FLIPR) assay plates. After a 4 hour (hr) incubation, wells of cells were individually co-transfected with human α9α10 nAChR plus one of 20,000 clones from cDNA libraries encoding most all human proteins (Origene Technologies; Rockville, Md.; Broad Institute; Cambridge, Mass.) using Fugene HD (Promega; Madison, Wis.) according to the manufacture's protocol. After two days incubation, cells were washed three times with assay buffer (137 mM NaCl, 4 mM KCl, 2 mM CaCl2, 1 mM MgCl2, 5 mM glucose, 10 mM HEPES pH7.4) and loaded with Calcium5 dye (Molecular Devices; San Jose, Calif.) and 1.25 mM probenecid for 1 hr at room temperature (RT). After three washes, the plates were placed in the FLIPR stage.
To further characterize the regulation of α9α10 nAChR expression, HEK293T cells were co-transfected with α9α10 nAChR and each of CHAT, TMIE, TMEM100, TMEM132A, TMEM132C, TMEM132D, TMEM132E and TNFRSF10A individually and in combination (Table 2).

[1] = HEK293T co-transfected with α9α10 nAChR + CHAT plus the named gene
[2] = HEK293T co-transfected with α9α10 nAChR plus the named gene

| Molecule | FLIPR response evoked by 200 μM ACh | functional expression of co-transfected α9α10 nAChR in cDNA library screen | combined effect of TMIE and CHAT on functional responses from α9α10 nAChR | FLIPR Response (Fold/Baseline) [1] [Fold/Baseline] | FLIPR Response (Fold/Baseline) [2] [Fold/Baseline] |
| --- | --- | --- | --- | --- | --- |
| B1 | significant FLIPR responses | enabled functional expression | synergized to enhance functional responses | – | – |
| B2 | – | enabled functional expression | – | 2.5 | 0.3 |
| B3 | significant FLIPR responses | enabled functional expression | synergized to enhance functional responses | 2.2 | 0.7 |
| B4 | – | enabled functional expression | – | 2.0 | 0.7 |
